The assay addresses SARS-CoV-2 (ancestral strain) RBD protein (SARS-CoV-2 ancestral strain, UniProt P0DTC2). The assay is described as follows: SPR.

B1: PRO-37587 (antibody, V domains shown)
VH: QVQLVQSGAEVKKPGSSVKVSCKASGDTSDTYTISWVRQAPGQGLEWMGRIILLSGYANYAQKIQGRVTITADKSTSTAYMELTSLRSDDTAVYYCARGFNGDYYGWGDDDAFDFWGQGTLVTVYS
VL: QTVLTQPPSVSGAPGQRVTISCTGSSSNIGAGYRVHWYQQLPGTAPKLLIAGRSNRPSGVPDRFSGSKSGTSASLAITGLQAEDEADYYCQSYDSSLFDPHWVFGGGTKLTVL
As for B1, the binding result was “binds”.

The record behind these values is doi:10.1101/2025.03.30.646023 (bioRxiv, 2025).
